# Reference: the supplement of paper PMC10567573
# B1: ACSBG2 (parent)
# chain: TPMTIPEFFRESVNRFGTYPALAS
# Variants of: B1
# Assay: protein stability index of a GFP-peptide fusion (GPS, HEK-293T) (PSI 1-6); higher = more stable
# Conditions: c terminus: a fixed tail appended
# 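Note: lentivirally expressed fusions sorted by FACS into six bins by GFP to DsRed ratio, PSI derived from sequencing read proportions per bin multiplied by bin number.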
row,Variant,protein stability index
1,TPMTGPEFFRESVNRFGTYPALAS [I5G],2.84
2,TPMTQPEFFRESVNRFGTYPALAS [I5Q],3.5
3,TPMTIPEFFRESVNRFGTYPALAT [S24T],2.07
4,TPMTIPEFFRESVNRFGTYPALAP [S24P],2.52
5,TPMTIPEFFRESVNRFGTYPALAC [S24C],2.03
6,TPMTIPEFFRESVNRFGTYPALAE [S24E],2.83
7,TPMTIPEFFRESVNRFGTYPALAF [S24F],1.58
8,TPMTIPEFFRESVNRFGTYPALAY [S24Y],1.76
9,TPMTIPEFFRESVNRFGTYPALAN [S24N],2.64
10,VPMTIPEFFRESVNRFGTYPALAS [T1V],1.93
11,FPMTIPEFFRESVNRFGTYPALAS [T1F],2.24
12,IPMTIPEFFRESVNRFGTYPALAS [T1I],1.93
13,NPMTIPEFFRESVNRFGTYPALAS [T1N],2.12
14,GPMTIPEFFRESVNRFGTYPALAS [T1G],2.13
15,APMTIPEFFRESVNRFGTYPALAS [T1A],2.28
16,SPMTIPEFFRESVNRFGTYPALAS [T1S],2.13
17,EPMTIPEFFRESVNRFGTYPALAS [T1E],2.12
18,RPMTIPEFFRESVNRFGTYPALAS [T1R],2.34
19,TPMAIPEFFRESVNRFGTYPALAS [T4A],2.62
20,TPMQIPEFFRESVNRFGTYPALAS [T4Q],2.13
21,TPMVIPEFFRESVNRFGTYPALAS [T4V],3.26
22,TPMWIPEFFRESVNRFGTYPALAS [T4W],2.19
23,TPMCIPEFFRESVNRFGTYPALAS [T4C],2.36
24,TPMRIPEFFRESVNRFGTYPALAS [T4R],2.32

row,Variant,protein stability index
1,TPMTIIEFFRESVNRFGTYPALAS [P6I],3
2,TPMTIGEFFRESVNRFGTYPALAS [P6G],2.08
3,TPMTICEFFRESVNRFGTYPALAS [P6C],1.89
4,TPMTIYEFFRESVNRFGTYPALAS [P6Y],1.99
5,TPMTIEEFFRESVNRFGTYPALAS [P6E],2.15
6,TPMTIREFFRESVNRFGTYPALAS [P6R],2.08
7,TPMTIDEFFRESVNRFGTYPALAS [P6D],1.76
8,TPMTIKEFFRESVNRFGTYPALAS [P6K],2.15
9,TPMTIVEFFRESVNRFGTYPALAS [P6V],1.41
10,TPMTIPKFFRESVNRFGTYPALAS [E7K],2.25
11,TPMTIPAFFRESVNRFGTYPALAS [E7A],2.26
12,TPMTIPIFFRESVNRFGTYPALAS [E7I],2.65
13,TPMTIPHFFRESVNRFGTYPALAS [E7H],2.94
14,TPMTIPLFFRESVNRFGTYPALAS [E7L],2.15
15,TPMTIPMFFRESVNRFGTYPALAS [E7M],2.63
16,TPMTIPEFFQESVNRFGTYPALAS [R10Q],2.62
17,TPMTIPEFFVESVNRFGTYPALAS [R10V],1.54
18,TPMTIPEFFSESVNRFGTYPALAS [R10S],2.45
19,TPMTIPEFFFESVNRFGTYPALAS [R10F],2.04
20,TPMTIPEFFWESVNRFGTYPALAS [R10W],1.97
21,TPMTIPEFFYESVNRFGTYPALAS [R10Y],1.86
22,TPMTIPEFFCESVNRFGTYPALAS [R10C],1.5
23,TPMTIPEFFTESVNRFGTYPALAS [R10T],2.37
24,TPMTIPEFFMESVNRFGTYPALAS [R10M],1.63

row,Variant,protein stability index
1,TPMTIPEFFRESVNRFGTYPAKAS [L22K],3.08
2,TPMTIPEFFRESVNRFGTYPAAAS [L22A],2.51
3,TPMTIPEFFRESVNRFGTYPAEAS [L22E],3.37
4,TPMTIPEFFRESVNRFGTYPASAS [L22S],3.04
5,TPMTIPEFFRESVNRFGTYPATAS [L22T],2.88
6,TPMTIPEFFRESVNRFGTYPACAS [L22C],2.54
7,TPMTIPEFFRESVNRFGTYPARAS [L22R],3.12
8,TPMTIPEFFRESVNRFGTYPAMAS [L22M],1.88
9,TPMTIPEFFRESVNRFGTYPAHAS [L22H],2.61
10,TPMTIPEFFRESVNRFGTYPANAS [L22N],3.45
11,TPMTIPEFFRESVNRFGTYPAGAS [L22G],3
12,TPMTIPEFFRESVNRFGTYPAYAS [L22Y],1.93
13,TPMTIPEFFRESVNRFGTYRALAS [P20R],2.18
14,TPMTIPEFFRESVNRFGTYLALAS [P20L],2.63
15,TPMTIPEFFRESVNRFGTYSALAS [P20S],2.04
16,TPMTIPEFFRESVNRFGTYTALAS [P20T],1.48
17,TPMTIPEFFRESVNRFGTYWALAS [P20W],2.11
18,TPMTIPEFFRESVNRFGTYVALAS [P20V],2.41
19,TPMTIPEFFRESVNRFGTYHALAS [P20H],1.92
20,TPMTIPEFFRESVNRFGTYYALAS [P20Y],1.56
21,TPMTIPEFFRESVNRFGTYEALAS [P20E],2.4
22,TPMTIPEFFRESVNRFGTYMALAS [P20M],2.87
23,TPMTIPEFFRESVNRFGTEPALAS [Y19E],3.37
24,TPMTIPEFFRESVNRFGTSPALAS [Y19S],2.54

row,Variant,protein stability index
1,TPMTIPEFFRESVNRFGTKPALAS [Y19K],2.8
2,TPMTIPEFFRESVNRFGTDPALAS [Y19D],3.44
3,TPMTIPEFFRESVNRFGTAPALAS [Y19A],2.82
4,TPMTIPEFFRESVNRFGTHPALAS [Y19H],2.77
5,TPMTIPEFFRESVNRFGTVPALAS [Y19V],2.71
6,TPMTIPEFFRESVNRFGTIPALAS [Y19I],2.78
7,TPMTIPEFFRESVNRFGTLPALAS [Y19L],2.38
8,TPMTIPEFFRESVNRFGTRPALAS [Y19R],3.17
9,TPMTIPEFFRESVNRKGTYPALAS [F16K],3.22
10,TPMTIPEFFRESVNRVGTYPALAS [F16V],2.64
11,TPMTIPEFFRESVNRIGTYPALAS [F16I],2.36
12,TPMTIPEFFRESVNRCGTYPALAS [F16C],2.54
13,TPMTIPEFFRESVNRDGTYPALAS [F16D],3.62
14,TPMTIPEFFRESVNRPGTYPALAS [F16P],2.92
15,TPMTIPEFFRESVNRFGTYPKLAS [A21K],2.87
16,TPMTIPEFFRESVNRFGTYPILAS [A21I],2.23
17,TPMTIPEFFRESVNRFGTYPDLAS [A21D],2.84
18,TPMTIPEFFRESVNRFGTYPLLAS [A21L],1.77
19,TPMTIPEFFRESVNRFGTYPWLAS [A21W],2.53
20,TPMTIPEFFRESVNRFGTYPRLAS [A21R],2.16
21,TPMTIPEFFRESVNRFGTYPSLAS [A21S],2.31
22,TPMTIPEFFRESVNRFGTYPNLAS [A21N],2.19
